Among the data in publication PMC6256756 are Km values, retold here.

The Km is the substrate concentration at which the rate is half of its maximum.

Substrate in this data set: Nc1nc2c(ncn2[C@@H]2O[C@H](COP(=O)(O)OP(=O)(O)OP(=O)(O)O)[C@@H](O)[C@H]2O)c(=O)[nH]1
Put plainly: steady-state kinetics, PK/LDH coupled GTPase assay (Km). Particulars: Mg2+ GTP binding site. It is filed as biochemical, Burkholderia cenocepacia.

B1: FtsZ (BcFtsZ) (Burkholderia cenocepacia J2315) (protein)
chain: MEFEMLETETNGTIIKVVGVGGAGGNAVQHMINRGVQGVDFIVMNTDAQALSRSRASSVIQLGNTGLGAGAKPEMGRAAAEEARERIADALRGAHMVFITAGMGGGTGTGAAPVVAQIAKEMGILTVGVVSKPFEFEGGKRMRVAEAGSQQLEDHVDSLIVVLNDKLFDVMGDDAEMDKCFQCADDVLNNAVAGIAEIINVDGLVNVDFEDVKTVMGEQGKAMMGTATVAGVDRARLAAEQAVASPLLEGVDLSGARGVLVNITSSRSLRLSETREVMNTIKSYAAEDATVIFGAVYDDAMGDALRVTVVATGLGRAAKKQQSAPMTLLRTGTDNQPVSAVSHGYAPAQHVSTADYGALDTPAVWRNSRETAASHVQALQEKGVDTYDIPAFLRKQAD
notes: recombinant BcFtsZ (BCAL3457) from pET-28a, N-terminal histidine tag removed with PreScission protease
As for B1, the Km stood at 6.4 ± 0.8 µM.
